Consider 5 molecules from patent publication US20010044939A1, “Small subunit of plant acetolactate synthase” (priority 2000, published 2001).

The target of assay [1] is N. plumbaginifolia ALS large subunit from plasmid pMTDRALS (Nicotiana plumbaginifolia). Nature of the assay: cell-based or functional assay.
The target in assay [2] is GST-LSU: A. thaliana ALS large subunit expressed as a glutathione-S-transferase fusion protein from plasmid pGEX-OCM2 (Arabidopsis thaliana) (UniProt P17597). Nature of the assay: cell-based or functional assay.
Assay [3] relates to Nicotiana plumbaginifolia acetolactate synthase (ALS) holoenzyme: N. plumbaginifolia LSU (encoded by pMTDRALS; ALS10 cDNA SEQ ID NO:42, predicted polypeptide …). Nature of the assay: Inhibition of reconstituted plant ALS holoenzyme by herbicides (acetoin detection, microtiter plate). The following applies: holoenzyme (LSU + GST-SSU, thrombin cleaved); sodium pyruvate started (10 μL of 500 mM per well); pH 7.6; 37° C., 30 min; read-out: I50. Type of assay: biochemical. On the procedure:
The plasmid pSSU Bbs/Bam was digested to completion with Bbs I and Xho I and the digestion products were separated by electrophoresis using a […] agarose gel and the 1.35 kbp Bbs I/Xho I fragment was recovered from the gel. Three hundred ng of this DNA was ligated with 1 μg of the plasmid pGEX-2TM that had been digested to completion with BamH I and Xho I and dephosphorylated as described above. The ligation reaction was diluted five fold with H2O and used to transform competent Max Efficiency E. coli DH5α as described above. […] This plasmid was designated pGEX-SSU.
The plasmid ALS10 that contains a full length cDNA copy of the Nicotiana plumbaginifolia ALS gene in the plasmid vector pBluescript was used as the source of the ALS coding region for pMTDRALS. The sequence of this cDNA is shown in SEQ ID NO:42. ALS10 was digested to completion with Xho I and Eco0109I, and the digestion products were separated by agarose gel electrophoresis. […] The plates were incubated overnight at 37° C. and plasmids isolated from kanamycin-resistant bacterial colonies were analyzed for the presence of the insert encoding the ALS large subunit by double digestion with Nde I and Xho I. One such plasmid, designated pMTDRALS was then transformed into E. coli BL21(DE3) using methods known to those skilled in the art. […]

Assay [4] addresses free Arabidopsis thaliana ALS large subunit released from GST-LSU by thrombin (Arabidopsis thaliana) (UniProt P17597). Nature of the assay: cell-based or functional assay.

With “Trx-HIS/SSU: N. plumbaginifolia acetolactate synthase small subunit expressed as a thioredoxin fusion from plasmid pTrx-HIS/SSU (from UniProt P0AA25 1-109)”, in assay [1], the Specific Activity before thrombin addition (units/mg LSU), ALS enzyme assay worked out at 5.5 units/mg LSU and the fold increase in specific activity (sample 4 against sample 3, before thrombin) worked out at 5 fold. Besides, in assay [2], the Specific Activity before thrombin addition (units/mg LSU), ALS enzyme assay amounted to 0.9 units/mg LSU and the fold increase in specific activity (sample 2 against sample 1, before thrombin) came to 3 fold.

As for `CC(C)C1(C)N=C(c2nc3ccccc3cc2C(=O)O)NC1=O` (stereo not shown) [imazequin], in assay [3], the IC50 is 800 nM.

`CCc1cnc(C2=NC(C)(C(C)C)C(=O)N2)c(C(=O)O)c1` (stereo not shown) [imezethapyr]: in assay [3], the IC50 was 4000 nM.

“free N. plumbaginifolia ALS small subunit released from Trx-HIS/SSU by thrombin”: the figures for the Specific Activity after thrombin addition (units/mg LSU), ALS enzyme assay in assay [1] and in assay [4] were 6.5 units/mg LSU and 1.1 units/mg LSU, respectively. Further, the fold increase in specific activity (sample 2 against sample 1, after thrombin) in assay [4] was > 20 fold.

In the case of “bovine serum albumin (from UniProt P02769 25-607)”, the figures for the Specific Activity after thrombin addition (units/mg LSU), ALS enzyme assay in assay [1] and in assay [4] were 0.4 units/mg LSU and 0.04 units/mg LSU, respectively. The values for the Specific Activity before thrombin addition (units/mg LSU), ALS enzyme assay in assay [1] and in assay [2] were 1.1 units/mg LSU and 0.3 units/mg LSU, respectively.
